Experimental data: article PMC5555194

Target: C3d (human), P01024
Test: SPR; C3d amine-coupled to a different flow cell of the same C1 chip; CFH (from 2.5 to 0.019 uM), or 0.6 uM CFH premixed with 1.2 uM PspCN, flowed over; equilibrium plots
Conditions: remark: other sources report otherwise

Sequence of C3d (human), P01024 (P01024 1002-1303): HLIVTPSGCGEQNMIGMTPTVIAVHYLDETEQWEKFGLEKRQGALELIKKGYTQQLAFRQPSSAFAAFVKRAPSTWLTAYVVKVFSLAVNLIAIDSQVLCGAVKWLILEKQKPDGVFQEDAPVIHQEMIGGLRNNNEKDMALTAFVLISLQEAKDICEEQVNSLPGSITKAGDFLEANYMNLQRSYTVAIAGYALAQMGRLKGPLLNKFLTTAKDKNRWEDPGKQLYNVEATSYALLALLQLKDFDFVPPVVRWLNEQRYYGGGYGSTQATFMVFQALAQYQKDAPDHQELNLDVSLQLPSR

- Kd: 2100 nM
B1: V62-CFH (recombinant human complement factor H, variant Val-62, Tyr-402, Glu-936), P08603 19-1231 (natural protein)
chain: EDCNELPPRRNTEILTGSWSDQTYPEGTQAIYKCRPGYRSLGNVIMVCRKGEWVALNPLRKCQKRPCGHPGDTPFGTFTLTGGNVFEYGVKAVYTCNEGYQLLGEINYRECDTDGWTNDIPICEVVKCLPVTAPENGKIVSSAMEPDREYHFGQAVRFVCNSGYKIEGDEEMHCSDDGFWSKEKPKCVEISCKSPDVINGSPISQKIIYKENERFQYKCNMGYEYSERGDAVCTESGWRPLPSCEEKSCDNPYIPNGDYSPLRIKHRTGDEITYQCRNGFYPATRGNTAKCTSTGWIPAPRCTLKPCDYPDIKHGGLYHENMRRPYFPVAVGKYYSYYCDEHFETPSGSYWDHIHCTQDGWSPAVPCLRKCYFPYLENGYNQNYGRKFVQGKSIDVACHPGYALPKAQTTVTCMENGWSPTPRCIRVKTCSKSSIDIENGFISESQYTYALKEKAKYQCKLGYVTADGETSGSITCGKDGWSAQPTCIKSCDIPVFMNARTKNDFTWFKLNDTLDYECHDGYESNTGSTTGSIVCGYNGWSDLPICYERECELPKIDVHLVPDRKKDQYKVGEVLKFSCKPGFTIVGPNSVQCYHFGLSPDLPICKEQVQSCGPPPELLNGNVKEKTKEEYGHSEVVEYYCNPRFLMKGPNKIQCVDGEWTTLPVCIVEESTCGDIPELEHGWAQLSSPPYYYGDSVEFNCSESFTMIGHRSITCIHGVWTQLPQCVAIDKLKKCKSSNLIILEEHLKNKKEFDHNSNIRYRCRGKEGWIHTVCINGRWDPEVNCSMAQIQLCPPPPQIPNSHNMTTTLNYRDGEKVSVLCQENYLIQEGEEITCKDGRWQSIPLCVEKIPCSQPPQIEHGTINSSRSSQESYAHGTKLSYTCEGGFRISEENETTCYMGKWSSPPQCEGLPCKSPPEISHGVVAHMSDSYQYGEEVTYKCFEGFGIDGPAIAKCLGEKWSHPPSCIKTDCLSLPSFENAIPMGEKKDVYKAGEQVTYTCATYYKMDGASNVTCINSRWTGRPTCRDTSCVNPPTVQNAYIVSRQMSKYPSGERVRYQCRSPYEMFGDEEVMCLNGNWTEPPQCKDSTGKCGPPPPIDNGDITSFPLSVYAPASSVEYQCQNLYQLEGNKRITCRNGQWSEPPKCLHPCVISREIMENYNIALRWTAKQKLYSRTGESVEFVCKRGYRLSSRSHTLRTTCWDGKLEYPTCAKR
modifications: here or on the partner: N-glycans trimmed to the first GlcNAc residues (EndoHf)
